Experimental data taken from publication PMC5451165, “Cellular levels of Grb2 and cytoskeleton stability are correlated in a neurodegenerative scenario” (Disease Models & Mechanisms, 2017).

Legend:
Details in all cases: partners not purified
[1] = target: T1, Grb2, endogenous in mouse brain (mouse (endogenous in mouse brain), UniProt Q60631 1-217); experiment: co-IP; Grb2 pull down from protein extracted from paraffinized brain sections of AD (APP/PS1) and WT mice, probed with anti-NOX4 antibody
T1 construct: Grb2, endogenous in mouse brain (APP/PS1 and WT mice), precipitated with an anti-Grb2 antibody; source: endogenous, protein extracted from paraffin-embedded brain sections of APP/PS1 (AD) and WT mice
T1 sequence (Q60631 whole entry): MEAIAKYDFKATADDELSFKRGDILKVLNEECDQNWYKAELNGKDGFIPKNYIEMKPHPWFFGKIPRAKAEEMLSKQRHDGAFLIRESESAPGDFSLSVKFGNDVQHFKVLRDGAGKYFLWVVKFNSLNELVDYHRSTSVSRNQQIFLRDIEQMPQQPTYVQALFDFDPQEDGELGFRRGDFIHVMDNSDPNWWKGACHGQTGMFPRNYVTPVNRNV

Grb2-DsRed construct = target: T2, Grb2-DsRed construct (UniProt P62993 1-217); experiment: co-IP; IP for Grb2 from cell lysate, blot with anti-NOX4 (reverse: IP for NOX4, blot with anti-Grb2); cells under control (GFP, DMSO, DsRed), AD-inducing (AICD, Aβ, DsRed), reversal (AICD, Aβ, Grb2-DsRed) and Grb2 knock-down (U6-Grb2) conditions
T2 construct: Grb2 cloned into a DsRed-C1 vector; In the transfected cells endogenous Grb2 is present too, and the anti-Grb2 antibody would precipitate both; A C1 vector usually places the fluorescent protein at the N-terminus; source: SHSY-5Y, transiently transfected, in lysate

[2] = target: T3, Growth factor receptor bound protein 2 (Grb2), endogenous in SHSY-5Y cells (human (endogenous in SHSY-5Y), UniProt P62993 1-217); experiment: as above
T3 construct: Grb2, endogenous in human neuroblastoma SHSY-5Y cells, precipitated with an anti-Grb2 antibody; source: endogenous, SHSY-5Y cell lysate

fold change of the co-precipitated interaction, AD mouse brain relative to wild type [1]	fold change of the co-precipitated interaction, reversal condition (AICD + Aβ + Grb2-DsRed) relative to control (Grb2-DsRed construct)	fold change of the co-precipitated interaction, AD conditions (AICD + Aβ) relative to control [2]	Binder
1.49 fold	–	–	NOX4, endogenous in mouse brain (natural protein, mouse (endogenous in mouse brain), UniProt Q9JHI8 1-578, looked up, NOX4, endogenous in mouse brain (APP/PS1 and WT mice), detected with an anti-NOX4 antibody; source: endogenous, protein extracted from paraffin-embedded brain sections of APP/PS1 (AD) and WT mice) MAVSWRSWLANEGVKHLCLLIWLSLNVLLFWKTFLLYNQGPEYYYIHQMLGLGLCLSRASASVLNLNCSLILLPMCRTVLAYLRGSQKVPSRRTRRLLDKSKTLHITCGVTICIFSGVHVAAHLVNALNFSVNYSEDFLELNAARYQNEDPRKLLFTTIPGLTGVCMVVVLFLMVTASTYAIRVSNYDIFWYTHNLFFVFYMLLLLHVSGGLLKYQTNVDTHPPGCISLNQTSSQNMSIPDYVSEHFHGSLPRGFSKLEDRYQKTLVKICLEEPKFQAHFPQTWIWISGPLCLYCAERLYRCIRSNKPVTIISVINHPSDVMELRMIKENFKARPGQYIILHCPSVSALENHPFTLTMCPTETKATFGVHFKVVGDWTERFRDLLLPPSSQDSEILPFIHSRNYPKLYIDGPFGSPFEESLNYEVSLCVAGGIGVTPFASILNTLLDDWKPYKLRRLYFIWVCRDIQSFQWFADLLCVLHNKFWQENRPDFVNIQLYLSQTDGIQKIIGEKYHTLNSRLFIGRPRWKLLFDEIAKCNRGKTVGVFCCGPSSISKTLHSLSNRNNSYGTKFEYNKESFS
–	2.18 fold	1.42 fold	NOX4, endogenous in SHSY-5Y cells (natural protein, human (endogenous in SHSY-5Y), UniProt Q9NPH5 1-578, looked up, NOX4, endogenous in human neuroblastoma SHSY-5Y cells, detected with an anti-NOX4 antibody; source: endogenous, SHSY-5Y cell lysate) MAVSWRSWLANEGVKHLCLFIWLSMNVLLFWKTFLLYNQGPEYHYLHQMLGLGLCLSRASASVLNLNCSLILLPMCRTLLAYLRGSQKVPSRRTRRLLDKSRTFHITCGVTICIFSGVHVAAHLVNALNFSVNYSEDFVELNAARYRDEDPRKLLFTTVPGLTGVCMVVVLFLMITASTYAIRVSNYDIFWYTHNLFFVFYMLLTLHVSGGLLKYQTNLDTHPPGCISLNRTSSQNISLPEYFSEHFHEPFPEGFSKPAEFTQHKFVKICMEEPRFQANFPQTWLWISGPLCLYCAERLYRYIRSNKPVTIISVMSHPSDVMEIRMVKENFKARPGQYITLHCPSVSALENHPFTLTMCPTETKATFGVHLKIVGDWTERFRDLLLPPSSQDSEILPFIQSRNYPKLYIDGPFGSPFEESLNYEVSLCVAGGIGVTPFASILNTLLDDWKPYKLRRLYFIWVCRDIQSFRWFADLLCMLHNKFWQENRPDYVNIQLYLSQTDGIQKIIGEKYHALNSRLFIGRPRWKLLFDEIAKYNRGKTVGVFCCGPNSLSKTLHKLSNQNNSYGTRFEYNKESFS
